From paper PMC5903163

Target: glucose-regulated protein 78 (GRP78) (Mesocricetus auratus (endogenous in BHK-21)) (UniProt P07823)
Chain of UniProt P07823 (P07823 19-654): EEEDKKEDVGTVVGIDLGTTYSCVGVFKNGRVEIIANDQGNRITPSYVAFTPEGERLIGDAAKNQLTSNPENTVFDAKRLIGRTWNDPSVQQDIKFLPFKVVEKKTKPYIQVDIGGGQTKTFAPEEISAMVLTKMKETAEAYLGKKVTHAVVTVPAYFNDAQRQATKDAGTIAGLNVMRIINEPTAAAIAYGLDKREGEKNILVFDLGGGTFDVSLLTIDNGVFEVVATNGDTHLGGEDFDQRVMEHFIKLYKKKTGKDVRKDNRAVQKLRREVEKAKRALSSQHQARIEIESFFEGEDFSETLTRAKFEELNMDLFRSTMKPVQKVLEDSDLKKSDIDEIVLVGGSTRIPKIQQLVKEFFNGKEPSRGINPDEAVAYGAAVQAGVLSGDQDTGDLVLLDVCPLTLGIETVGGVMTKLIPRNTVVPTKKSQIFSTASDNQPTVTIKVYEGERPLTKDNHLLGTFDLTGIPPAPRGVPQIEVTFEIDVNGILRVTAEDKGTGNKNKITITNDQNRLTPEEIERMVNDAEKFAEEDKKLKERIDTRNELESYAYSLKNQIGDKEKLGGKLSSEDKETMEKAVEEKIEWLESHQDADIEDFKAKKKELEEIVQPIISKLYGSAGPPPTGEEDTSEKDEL

**Q.** Which TMUV RNA (qRT-PCR, 24 h) in BHK-21 cells pre-incubated with 100 μg/ml anti-GRP78 N-terminal antibody (ab32618) before infection, against rabbit IgG treated cells does the source give for “Tembusu virus (TMUV) JS804, whole virus particle (complex)” here?
**A.** 50%
